Laboratory results taken from the supplement of paper PMC6757056.
± gives the standard deviation of the averaged measurements.

B1: library; a variant is named by its letters at N, in order (parent)
chain: GCUGUCACCGGUGUAUUACCCUAGUGGUCGACCGGUCUGAUGAGUCUNNNNNNAGACGAAACAGC

How the values were obtained:
hypoxanthine [1] = variants of: B1; assay: FACS-Seq fitted mean relative fluorescence mCherry/BFP without ligand (log10 relative fluorescence); ligand: hypoxanthine (xanthine aptamer); higher = higher reporter protein expression; settings: HEK293T, ligand present: no
Procedure: (§1)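 Hammerhead (sTRSV) ribozyme switch libraries with a ligand aptamer grafted on stem I and a randomized N4-6 loop II, cloned into the 3' UTR of mCherry and transiently transfected into HEK293T cells; RNA-Seq 72 h post transfection with ligand added 1 h before transfection; RNA read count / plasmid DNA read count normalized to the non-cleaving sTRSVctl (x100), log10; sequences with >100 DNA reads. FACS-Seq: lentiviral library sorted into 6 bins after 48 h ligand, log-normal fit mean of mCherry/BFP scaled to controls. Printed sequences are partial switch sequences.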

hypoxanthine [2] = variants of: B1; assay: normalized RNA/DNA level with ligand (relative to sTRSVctl = 100) (log10 (% of sTRSVctl)); ligand: hypoxanthine (xanthine aptamer); higher = less ribozyme self-cleavage, higher mRNA level; settings: ligand concentration (+) RNA-Seq: 5 mM, HEK293T, reporter: mCherry (pCS4076), ligand present: yes
Procedure: as §1

hypoxanthine [3] = variants of: B1; assay: normalized RNA/DNA level without ligand (relative to sTRSVctl = 100) (log10 (% of sTRSVctl)); ligand: hypoxanthine (xanthine aptamer); higher = less ribozyme self-cleavage, higher mRNA level; settings: HEK293T, reporter: mCherry (pCS4076), ligand present: no
Procedure: as §1

hypoxanthine [4] = variants of: B1; assay: FACS-Seq fitted mean relative fluorescence mCherry/BFP with ligand (log10 relative fluorescence); ligand: hypoxanthine (xanthine aptamer); ligand concentration (+) FACS-Seq: 5 mM; higher = higher reporter protein expression; settings: HEK293T, ligand present: yes
Outline: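 The ribozyme switch sat in an mCherry reporter, delivered by lentivirus into HEK293T libraries along with an EF1α-BFP marker. Enriched cells were incubated 48 h with or without ligand, sorted into 6 bins by mCherry/BFP, and bin genomic DNA was PCR-amplified, barcoded and MiSeq-sequenced. Fluorescence equals the fitted normal mean of the bin counts after normalization. Those log10(mCherry/BFP) means were scaled to five spiked-in control ribozymes.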

| Variant | FACS-Seq fitted mean (log10) (hypoxanthine [1]) | normalized RNA/DNA level with ligand (log10) (hypoxanthine [2]) | normalized RNA/DNA level without ligand (log10) (hypoxanthine [3]) | FACS-Seq fitted mean (log10) (hypoxanthine [4]) |
| --- | --- | --- | --- | --- |
| AACUAU | 0.469 ± 0.04 | 1.9 ± 0.041 | 1.787 ± 0.012 | 0.51 ± 0.053 |
| GACUAU | 0.185 ± 0.051 | 1.92 ± 0.077 | 1.829 ± 0.016 | 0.377 ± 0.004 |
| UACUCA | 0.0121 ± 0.031 | 1.95 ± 0.029 | 1.907 ± 0.0097 | 0.0228 ± 0.0046 |
| AACUCG | 0.382 ± 0.056 | 1.92 ± 0.033 | 1.582 ± 0.0054 | 0.644 ± 0.022 |
| GACUCG | 0.331 ± 0.066 | 1.86 ± 0.051 | 1.63 ± 0.083 | 0.567 ± 0.081 |
| AACUGA | -0.0809 ± 0.032 | 1.94 ± 0.035 | 1.716 ± 0.012 | -0.204 ± 0.016 |
| GACUGA | 0.742 ± 0.053 | 1.94 ± 0.072 | 1.763 ± 0.011 | 0.639 ± 0.17 |
| AACUGC | 0.74 ± 0.033 | 1.91 ± 0.053 | 1.87 ± 0.025 | 0.697 ± 0.048 |
| CACUGG | 0.504 ± 0.03 | 1.9 ± 0.019 | 1.43 ± 0.16 | 0.709 ± 0.016 |
| AACUGG | 0.285 ± 0.031 | 1.7871 ± 0.0011 | 1.42 ± 0.039 | 0.67312 ± 0.00058 |
| GACUGG | 0.157 ± 0.015 | 1.758 ± 0.0058 | 1.42 ± 0.045 | 0.6446 ± 0.0029 |
| AACUGU | 0.343 ± 0.028 | 1.89 ± 0.027 | 1.72 ± 0.014 | 0.538 ± 0.014 |
| UACUGU | 0.399 ± 0.032 | 1.95 ± 0.066 | 1.67 ± 0.011 | 0.638 ± 0.036 |
| AACUUA | 0.394 ± 0.02 | 1.9 ± 0.021 | 1.857 ± 0.013 | 0.581 ± 0.02 |
| CACUUC | -0.745 ± 0.014 | 1.884 ± 0.015 | 1.93 ± 0.066 | -0.484 ± 0.033 |
| AACUUG | 0.597 ± 0.037 | 1.87 ± 0.027 | 1.54 ± 0.03 | 0.726 ± 0.1 |
| GACUUG | 0.475 ± 0.072 | 1.84 ± 0.054 | 1.5 ± 0.034 | 0.228 ± 0.36 |
| CACUUU | 0.525 ± 0.016 | 1.89 ± 0.036 | 1.847 ± 0.0042 | 0.491 ± 0.011 |
| AACUUU | 0.233 ± 0.078 | 1.92 ± 0.038 | 1.9 ± 0.058 | 0.348 ± 0.087 |
| UACUUU | 0.0654 ± 0.07 | 1.97 ± 0.038 | 1.921 ± 0.0072 | 0.288 ± 0.041 |
| CAGAAA | 0.22 ± 0.05 | 1.874 ± 0.00091 | 1.58 ± 0.062 | 0.32 ± 0.027 |
| AAGAAA | 0.272 ± 0.028 | 1.91 ± 0.029 | 1.605 ± 0.01 | 0.598 ± 0.015 |
| GAGAAA | 0.546 ± 0.035 | 1.88 ± 0.021 | 1.597 ± 0.015 | 0.651 ± 0.048 |
| UAGAAA | 0.355 ± 0.024 | 1.88 ± 0.052 | 1.702 ± 0.013 | 0.469 ± 0.053 |

| Variant | FACS-Seq fitted mean (log10) (hypoxanthine [1]) | normalized RNA/DNA level with ligand (log10) (hypoxanthine [2]) | normalized RNA/DNA level without ligand (log10) (hypoxanthine [3]) | FACS-Seq fitted mean (log10) (hypoxanthine [4]) |
| --- | --- | --- | --- | --- |
| CAGAAC | 0.442 ± 0.066 | 1.884 ± 0.0072 | 1.73 ± 0.039 | 0.407 ± 0.016 |
| GAGAAC | 0.417 ± 0.072 | 1.912 ± 0.0063 | 1.63 ± 0.038 | 0.735 ± 0.033 |
| UAGAAC | 0.437 ± 0.028 | 1.93 ± 0.031 | 1.809 ± 0.014 | 0.578 ± 0.076 |
| AAGAAG | -0.35 ± 0.015 | 1.545 ± 0.013 | 1.04 ± 0.028 | 0.459 ± 0.029 |
| GAGAAG | -0.406 ± 0.0075 | 1.55 ± 0.017 | 1.05 ± 0.024 | 0.342 ± 0.037 |
| UAGAAG | 0.421 ± 0.0051 | 1.858 ± 0.0066 | 1.47 ± 0.022 | 0.577 ± 0.057 |
| AAGAAU | 0.521 ± 0.035 | 1.906 ± 0.0038 | 1.65 ± 0.018 | 0.5797 ± 0.0012 |
| GAGAAU | 0.4579 ± 0.0037 | 1.91 ± 0.021 | 1.67 ± 0.023 | 0.611 ± 0.05 |
| UAGAAU | 0.3304 ± 0.003 | 1.9 ± 0.023 | 1.72 ± 0.03 | 0.6203 ± 0.0037 |
| CAGACA | 0.574 ± 0.043 | 1.96 ± 0.032 | 1.75 ± 0.045 | 0.74 ± 0.064 |
| AAGACA | 0.332 ± 0.067 | 1.93 ± 0.067 | 1.675 ± 0.012 | 0.559 ± 0.0087 |
| GAGACA | 0.3113 ± 0.00099 | 1.905 ± 0.0057 | 1.68 ± 0.029 | 0.548 ± 0.014 |
| AAGACC | 0.483 ± 0.015 | 1.94 ± 0.029 | 1.9 ± 0.027 | 0.305 ± 0.21 |
| AAGACG | -0.0743 ± 0.0055 | 1.67 ± 0.077 | 1.17 ± 0.027 | 0.587 ± 0.028 |
| GAGACG | 0.287 ± 0.0096 | 1.749 ± 0.015 | 1.25 ± 0.055 | 0.807 ± 0.067 |
| GAGACU | -0.451 ± 0.03 | 1.96 ± 0.047 | 1.83 ± 0.031 | -0.205 ± 0.035 |
| CAGAGA | 0.37782 ± 0.00012 | 1.892 ± 0.0089 | 1.659 ± 0.0052 | 0.696 ± 0.03 |
| AAGAGA | 0.1774 ± 0.00084 | 1.8 ± 0.047 | 1.25 ± 0.055 | 0.598 ± 0.033 |
| GAGAGA | 0.257 ± 0.028 | 1.81 ± 0.02 | 1.34 ± 0.042 | 0.585 ± 0.043 |
| UAGAGA | -0.0593 ± 0.041 | 1.9 ± 0.051 | 1.39 ± 0.036 | 0.431 ± 0.029 |
| GAGAGC | 0.164 ± 0.036 | 1.8 ± 0.033 | 1.27 ± 0.072 | 0.494 ± 0.031 |
| CAGAGG | 0.273 ± 0.0028 | 1.813 ± 0.0092 | 1.21 ± 0.06 | 0.702 ± 0.048 |
| AAGAGG | -0.185 ± 0.01 | 1.43 ± 0.017 | 1.065 ± 0.0061 | 0.478 ± 0.048 |
| GAGAGG | 0.00193 ± 0.027 | 1.45 ± 0.017 | 1.01 ± 0.1 | 0.644 ± 0.032 |

| Variant | FACS-Seq fitted mean (log10) (hypoxanthine [1]) | normalized RNA/DNA level with ligand (log10) (hypoxanthine [2]) | normalized RNA/DNA level without ligand (log10) (hypoxanthine [3]) | FACS-Seq fitted mean (log10) (hypoxanthine [4]) |
| --- | --- | --- | --- | --- |
| UAGAGG | 0.0918 ± 0.042 | 1.75 ± 0.038 | 1.21 ± 0.03 | 0.552 ± 0.011 |
| AAGAGU | 0.323 ± 0.065 | 1.81 ± 0.025 | 1.4 ± 0.047 | 0.664 ± 0.051 |
| UAGAGU | 0.11 ± 0.061 | 1.74 ± 0.09 | 1.21 ± 0.04 | 0.536 ± 0.099 |
| AAGAUA | 0.32 ± 0.064 | 1.89 ± 0.031 | 1.63 ± 0.022 | 0.339 ± 0.1 |
| GAGAUA | 0.345 ± 0.013 | 1.869 ± 0.015 | 1.65 ± 0.0036 | 0.362 ± 0.087 |
| AAGAUC | 0.614 ± 0.031 | 1.973 ± 0.0076 | 1.92 ± 0.043 | 0.556 ± 0.033 |
| GAGAUC | 0.247 ± 0.015 | 1.94 ± 0.021 | 1.83 ± 0.053 | 0.211 ± 0.004 |
| AAGAUG | 0.0294 ± 0.013 | 1.64 ± 0.087 | 1.09 ± 0.045 | 0.578 ± 0.025 |
| GAGAUG | 0.1129 ± 0.00042 | 1.65 ± 0.064 | 1.14 ± 0.05 | 0.707 ± 0.033 |
| UAGAUG | -0.00441 ± 0.085 | 1.9 ± 0.081 | 1.615 ± 0.0023 | 0.344 ± 0.03 |
| AAGAUU | -0.294 ± 0.047 | 1.9382 ± 0.00039 | 1.805 ± 0.016 | 0.11 ± 0.042 |
| AAGCAA | 0.4932 ± 0.00094 | 1.899 ± 0.0026 | 1.61 ± 0.053 | 0.591 ± 0.03 |
| GAGCAA | 0.362 ± 0.027 | 1.892 ± 0.013 | 1.581 ± 0.0039 | 0.596 ± 0.09 |
| UAGCAA | 0.0307 ± 0.043 | 1.9 ± 0.026 | 1.739 ± 0.0055 | 0.155 ± 0.024 |
| GAGCAC | 0.773 ± 0.029 | 1.89 ± 0.037 | 1.71 ± 0.05 | 0.682 ± 0.074 |
| AAGCAG | -0.122 ± 0.013 | 1.64 ± 0.044 | 1.19 ± 0.02 | 0.501 ± 0.039 |
| GAGCAG | -0.00628 ± 0.045 | 1.67 ± 0.027 | 1.19 ± 0.024 | 0.5054 ± 0.0013 |
| UAGCAG | 0.215 ± 0.033 | 1.87 ± 0.02 | 1.61 ± 0.038 | 0.507 ± 0.05 |
| CAGCAU | 0.36 ± 0.085 | 1.947 ± 0.0067 | 1.71 ± 0.029 | 0.642 ± 0.028 |
| AAGCCA | -0.28 ± 0.034 | 1.94 ± 0.039 | 1.76 ± 0.021 | 0.134 ± 0.017 |
| GAGCCA | -0.0202 ± 0.12 | 1.93 ± 0.066 | 1.76 ± 0.018 | 0.234 ± 0.1 |
| AAGCCG | 0.00433 ± 0.082 | 1.728 ± 0.013 | 1.26 ± 0.04 | 0.4844 ± 0.0029 |
| AAGCGA | 0.221 ± 0.0035 | 1.91 ± 0.052 | 1.43 ± 0.024 | 0.391 ± 0.04 |
| GAGCGA | 0.291 ± 0.062 | 1.89 ± 0.03 | 1.497 ± 0.0043 | 0.54 ± 0.037 |
